The assay has as its target HA-hFc probe: H1N1 A/California/04/2009 HA ectodomain fused to human IgG1 Fc. Nature of the assay: flow cytometry on cells. Particulars: parent: est. 1.0; read off a plot.

Consider “Flag-tagged fTfR-5J8 receptor, WT (Flag+) (from UniProt Q9MYZ3) D100bL”, for which the ratio to parent is 0.28.
As to “Flag-tagged fTfR-5J8 receptor, WT (Flag+) (from UniProt Q9MYZ3) I93A”, the ratio to parent is 0.98.
On to “Flag-tagged fTfR-5J8 receptor, WT (Flag+) (from UniProt Q9MYZ3) I93D”, for which the ratio to parent amounted to 0.97.
For “Flag-tagged fTfR-5J8 receptor, WT (Flag+) (from UniProt Q9MYZ3) N32A”, the ratio to parent was 0.94.
For “Flag-tagged fTfR-5J8 receptor, WT (Flag+) (from UniProt Q9MYZ3) R97A; P100aA; I93A”, the ratio to parent came out at 0.42.
Consider “Flag-tagged fTfR-5J8 receptor, WT (Flag+) (from UniProt Q9MYZ3) R97H”, for which the ratio to parent worked out at 0.84.

For the origin of these results see article PMC12090727.
